Laboratory results from patent publication US20240139265A1.

target: HLA-A*01:01 class I complex (biotinylated heavy chain with beta2-microglobulin) (human); assay: UV peptide exchange + HLA class I ELISA; % of Pos control peptide; conditions: remark: other sources report otherwise

| Binder | exchange rate with Pos peptide [%] |
| --- | --- |
| IVWWCPMSR (here or on the partner: biotinylated heavy chain) [P98 9-mer neoantigen peptide … (TP53 (R213D) frameshift)] | 2.5 |
| RAKCKFSIL (here or on the partner: biotinylated heavy chain) [P56 9-mer neoantigen peptide … (SPOP(F102C) missense)] | 2.6 |
| RVGNCKHLK (here or on the partner: biotinylated heavy chain) [P82 9-mer neoantigen peptide … (AR-V7 splice variant)] | 1.5 |
| RAVRRMNTF (here or on the partner: biotinylated heavy chain) [P17 9-mer neoantigen peptide … (MSMB-NOCA4 fusion)] | 4.9 |
| CPMSRLRLA (here or on the partner: biotinylated heavy chain) [P46 9-mer neoantigen peptide … (TP53 (R213D) frameshift)] | 2.4 |
| CYLGRQKRF (here or on the partner: biotinylated heavy chain) [P61 9-mer neoantigen peptide … (FOXA1.p.R261G missense)] | 1.7 |
| FLFLLLPLS (here or on the partner: biotinylated heavy chain) [P87 9-mer neoantigen peptide … (AR-Intron splice variant)] | 1.1 |

Other lines, results leading:

| exchange rate with Pos peptide [%] | Binder |
| --- | --- |
| 2.5 | HVPKILSGK (here or on the partner: biotinylated heavy chain) [P58 9-mer neoantigen peptide … (AR (Q903H) missense)] |
| 3.1 | YLRRQKRLK (here or on the partner: biotinylated heavy chain) [P60 9-mer neoantigen peptide … (FOXA1.p.F266L missense)] |
| 2.5 | LMAQRLLLR (here or on the partner: biotinylated heavy chain) [P97 9-mer neoantigen peptide … (FOXRED2-TXN2 fusion)] |
| 0.1 | YCMAAPMGL (here or on the partner: biotinylated heavy chain) [P76 9-mer neoantigen peptide … (AR-V3 splice variant)] |
| 5.2 | IPVLTRWPL (here or on the partner: biotinylated heavy chain) [P19 9-mer neoantigen peptide … (TMEM222-LOC644961 fusion)] |
| 4.4 | QLIAMDSAI (here or on the partner: biotinylated heavy chain) [P22 9-mer neoantigen peptide … (SLC45A3-ELK4 fusion)] |
| 4.3 | YQFTFDLLI (here or on the partner: biotinylated heavy chain) [P48 9-mer neoantigen peptide … (AR.p.H875Y missense)] |

target: HLA-A*02:01 class I complex (biotinylated heavy chain with beta2-microglobulin) (human); assay: as above; conditions: remark: other sources report otherwise

| Binder | exchange rate with Pos peptide [%] |
| --- | --- |
| IVWWCPMSR (here or on the partner: biotinylated heavy chain) [P98 9-mer neoantigen peptide … (TP53 (R213D) frameshift)] | 7.9 |
| RAKCKFSIL (here or on the partner: biotinylated heavy chain) [P56 9-mer neoantigen peptide … (SPOP(F102C) missense)] | 8.4 |
| RVGNCKHLK (here or on the partner: biotinylated heavy chain) [P82 9-mer neoantigen peptide … (AR-V7 splice variant)] | 6.3 |
| CPMSRLRLA (here or on the partner: biotinylated heavy chain) [P46 9-mer neoantigen peptide … (TP53 (R213D) frameshift)] | 14.4 |
| CYLGRQKRF (here or on the partner: biotinylated heavy chain) [P61 9-mer neoantigen peptide … (FOXA1.p.R261G missense)] | 5.8 |
| FLFLLLPLS (here or on the partner: biotinylated heavy chain) [P87 9-mer neoantigen peptide … (AR-Intron splice variant)] | 64 |

Second part, the binder after the results:

| exchange rate with Pos peptide [%] | Binder |
| --- | --- |
| 11.8 | HVPKILSGK (here or on the partner: biotinylated heavy chain) [P58 9-mer neoantigen peptide … (AR (Q903H) missense)] |
| 7.9 | YLRRQKRLK (here or on the partner: biotinylated heavy chain) [P60 9-mer neoantigen peptide … (FOXA1.p.F266L missense)] |
| 4.6 | LMAQRLLLR (here or on the partner: biotinylated heavy chain) [P97 9-mer neoantigen peptide … (FOXRED2-TXN2 fusion)] |
| 85.9 | YCMAAPMGL (here or on the partner: biotinylated heavy chain) [P76 9-mer neoantigen peptide … (AR-V3 splice variant)] |
| 8.2 | IPVLTRWPL (here or on the partner: biotinylated heavy chain) [P19 9-mer neoantigen peptide … (TMEM222-LOC644961 fusion)] |
| 46.9 | QLIAMDSAI (here or on the partner: biotinylated heavy chain) [P22 9-mer neoantigen peptide … (SLC45A3-ELK4 fusion)] |
| 99.3 | YQFTFDLLI (here or on the partner: biotinylated heavy chain) [P48 9-mer neoantigen peptide … (AR.p.H875Y missense)] |
| 89.2 | LLERNSFEV (here or on the partner: biotinylated heavy chain) [P73 9-mer neoantigen peptide … (TP53 (G266E) missense)] |

target: HLA-A*03:01 class I complex (biotinylated heavy chain with beta2-microglobulin) (human); assay: as above; conditions: remark: other sources report otherwise

| Binder | exchange rate with Pos peptide [%] |
| --- | --- |
| IVWWCPMSR (here or on the partner: biotinylated heavy chain) [P98 9-mer neoantigen peptide … (TP53 (R213D) frameshift)] | 51.1 |
| RAKCKFSIL (here or on the partner: biotinylated heavy chain) [P56 9-mer neoantigen peptide … (SPOP(F102C) missense)] | 6.8 |
| RVGNCKHLK (here or on the partner: biotinylated heavy chain) [P82 9-mer neoantigen peptide … (AR-V7 splice variant)] | 58.1 |
| RAVRRMNTF (here or on the partner: biotinylated heavy chain) [P17 9-mer neoantigen peptide … (MSMB-NOCA4 fusion)] | 3.8 |
| CPMSRLRLA (here or on the partner: biotinylated heavy chain) [P46 9-mer neoantigen peptide … (TP53 (R213D) frameshift)] | 10.3 |
| FLFLLLPLS (here or on the partner: biotinylated heavy chain) [P87 9-mer neoantigen peptide … (AR-Intron splice variant)] | 2.4 |

Further lines, results first:

| exchange rate with Pos peptide [%] | Binder |
| --- | --- |
| 32.5 | HVPKILSGK (here or on the partner: biotinylated heavy chain) [P58 9-mer neoantigen peptide … (AR (Q903H) missense)] |
| 36.6 | YLRRQKRLK (here or on the partner: biotinylated heavy chain) [P60 9-mer neoantigen peptide … (FOXA1.p.F266L missense)] |
| 39 | LMAQRLLLR (here or on the partner: biotinylated heavy chain) [P97 9-mer neoantigen peptide … (FOXRED2-TXN2 fusion)] |
| 6 | YCMAAPMGL (here or on the partner: biotinylated heavy chain) [P76 9-mer neoantigen peptide … (AR-V3 splice variant)] |
| 4.1 | IPVLTRWPL (here or on the partner: biotinylated heavy chain) [P19 9-mer neoantigen peptide … (TMEM222-LOC644961 fusion)] |
| 4.8 | QLIAMDSAI (here or on the partner: biotinylated heavy chain) [P22 9-mer neoantigen peptide … (SLC45A3-ELK4 fusion)] |
| 4.4 | YQFTFDLLI (here or on the partner: biotinylated heavy chain) [P48 9-mer neoantigen peptide … (AR.p.H875Y missense)] |
| 3.5 | LLERNSFEV (here or on the partner: biotinylated heavy chain) [P73 9-mer neoantigen peptide … (TP53 (G266E) missense)] |

target: HLA-A*24:02 class I complex (biotinylated heavy chain with beta2-microglobulin) (human); assay: as above; conditions: remark: other sources report otherwise

| Binder | exchange rate with Pos peptide [%] |
| --- | --- |
| IVWWCPMSR (here or on the partner: biotinylated heavy chain) [P98 9-mer neoantigen peptide … (TP53 (R213D) frameshift)] | -0.1 |
| RAKCKFSIL (here or on the partner: biotinylated heavy chain) [P56 9-mer neoantigen peptide … (SPOP(F102C) missense)] | 0.5 |
| RVGNCKHLK (here or on the partner: biotinylated heavy chain) [P82 9-mer neoantigen peptide … (AR-V7 splice variant)] | -0.1 |
| RAVRRMNTF (here or on the partner: biotinylated heavy chain) [P17 9-mer neoantigen peptide … (MSMB-NOCA4 fusion)] | 0.1 |
| CPMSRLRLA (here or on the partner: biotinylated heavy chain) [P46 9-mer neoantigen peptide … (TP53 (R213D) frameshift)] | -0.4 |
| CYLGRQKRF (here or on the partner: biotinylated heavy chain) [P61 9-mer neoantigen peptide … (FOXA1.p.R261G missense)] | 90.3 |
| FLFLLLPLS (here or on the partner: biotinylated heavy chain) [P87 9-mer neoantigen peptide … (AR-Intron splice variant)] | 0.2 |

The remaining lines, values ahead:

| exchange rate with Pos peptide [%] | Binder |
| --- | --- |
| 0.2 | HVPKILSGK (here or on the partner: biotinylated heavy chain) [P58 9-mer neoantigen peptide … (AR (Q903H) missense)] |
| 0.9 | YLRRQKRLK (here or on the partner: biotinylated heavy chain) [P60 9-mer neoantigen peptide … (FOXA1.p.F266L missense)] |
| 0.1 | LMAQRLLLR (here or on the partner: biotinylated heavy chain) [P97 9-mer neoantigen peptide … (FOXRED2-TXN2 fusion)] |
| -0.5 | YCMAAPMGL (here or on the partner: biotinylated heavy chain) [P76 9-mer neoantigen peptide … (AR-V3 splice variant)] |
| 0.1 | IPVLTRWPL (here or on the partner: biotinylated heavy chain) [P19 9-mer neoantigen peptide … (TMEM222-LOC644961 fusion)] |
| 0 | QLIAMDSAI (here or on the partner: biotinylated heavy chain) [P22 9-mer neoantigen peptide … (SLC45A3-ELK4 fusion)] |
| 0.1 | YQFTFDLLI (here or on the partner: biotinylated heavy chain) [P48 9-mer neoantigen peptide … (AR.p.H875Y missense)] |
| 0.5 | LLERNSFEV (here or on the partner: biotinylated heavy chain) [P73 9-mer neoantigen peptide … (TP53 (G266E) missense)] |

target: HLA-B*07:02 class I complex (biotinylated heavy chain with beta2-microglobulin) (human); assay: as above; conditions: remark: other sources report otherwise

| Binder | exchange rate with Pos peptide [%] |
| --- | --- |
| IVWWCPMSR (here or on the partner: biotinylated heavy chain) [P98 9-mer neoantigen peptide … (TP53 (R213D) frameshift)] | 6.7 |
| RAKCKFSIL (here or on the partner: biotinylated heavy chain) [P56 9-mer neoantigen peptide … (SPOP(F102C) missense)] | 82.5 |
| RVGNCKHLK (here or on the partner: biotinylated heavy chain) [P82 9-mer neoantigen peptide … (AR-V7 splice variant)] | 12.9 |
| RAVRRMNTF (here or on the partner: biotinylated heavy chain) [P17 9-mer neoantigen peptide … (MSMB-NOCA4 fusion)] | 38.7 |
| CPMSRLRLA (here or on the partner: biotinylated heavy chain) [P46 9-mer neoantigen peptide … (TP53 (R213D) frameshift)] | 64.8 |
| FLFLLLPLS (here or on the partner: biotinylated heavy chain) [P87 9-mer neoantigen peptide … (AR-Intron splice variant)] | 5 |

The next lines start with the values.

| exchange rate with Pos peptide [%] | Binder |
| --- | --- |
| 6.1 | YLRRQKRLK (here or on the partner: biotinylated heavy chain) [P60 9-mer neoantigen peptide … (FOXA1.p.F266L missense)] |
| 7 | LMAQRLLLR (here or on the partner: biotinylated heavy chain) [P97 9-mer neoantigen peptide … (FOXRED2-TXN2 fusion)] |
| 91.5 | YCMAAPMGL (here or on the partner: biotinylated heavy chain) [P76 9-mer neoantigen peptide … (AR-V3 splice variant)] |
| 91.3 | IPVLTRWPL (here or on the partner: biotinylated heavy chain) [P19 9-mer neoantigen peptide … (TMEM222-LOC644961 fusion)] |
| 8.3 | QLIAMDSAI (here or on the partner: biotinylated heavy chain) [P22 9-mer neoantigen peptide … (SLC45A3-ELK4 fusion)] |
| 12.8 | YQFTFDLLI (here or on the partner: biotinylated heavy chain) [P48 9-mer neoantigen peptide … (AR.p.H875Y missense)] |
| 8.7 | LLERNSFEV (here or on the partner: biotinylated heavy chain) [P73 9-mer neoantigen peptide … (TP53 (G266E) missense)] |
